Test results as given in PMC7480105, “Wbox2: A clathrin terminal domain–derived peptide inhibitor of clathrin-mediated endocytosis” (The Journal of Cell Biology, 2020).

What was measured:
Assay type in all cases: cell-based
ARPE/HPV eGFP-CLCa cells = experiment: TIRFM CCP dynamics with TDD/TD overexpression; conditions: TIRFM and cmeAnalysis (Fig. 3 C, Fig. 4 C)
Procedure: Cells were seeded on a gelatin-coated 22 × 22–mm cover glass (Corning; 2850-22) overnight and moved to fresh cell culture medium 30 min before being mounted on a 25 × 75–mm slide (Thermo Fisher Scientific; 3050). Imaging was conducted with a 60×, 1.49-NA Apo TIRF objective (Nikon) mounted on a Ti-Eclipse inverted microscope. Perfect focus was used during time-lapse imaging. TIRF penetration depth was ∼80 nm. Videos were acquired for 7.5 min at the rate of 1 frame/s for all live-cell imaging. For dual-color imaging, two sequential images of primary and secondary channel were taken within 1 s, and the video length was the same as single-channel imaging. Published cmeAnalysis software was used for CCP detection, tracking, and quantification ([Aguet et al., 2013]; [Jaqaman et al., 2008]; [Loerke et al., 2011]).

[1] = test system: fluid phase uptake of HRP in ARPE/HPV cells; experiment: Fluid-phase uptake of HRP; conditions: TDD expression (0 ng/ml Tet), ARPE/HPV cells (Fig. 2 E)
Procedure: Fluid-phase uptake assays were conducted using HRP (Sigma-Aldrich) as the readout. Cells were seeded in 96-well plates (Costar) at 60–70% confluence and grown overnight. Before assay, cell culture medium was changed to PBS4+ and cooled down to 4°C. Ice-cold HRP solution (1 mg/ml) was added to cells and moved to a 37°C water bath for 30 min. In parallel, some cells were kept at 4°C as blank control. All the cells were acid washed (0.2 M acetic acid and 0.2 M NaCl, pH 2.3) and lysed with ELISA blocking buffer (1% Triton X-100, 0.1% SDS, 0.2% BSA, 50 mM NaCl, and 1 mM Tris, pH 7.4) for 1 h at 4°C. Color was developed using OPD solution (Sigma-Aldrich), and absorbance was read at 490 nm (Biotek Synergy H1 Hybrid Reader).

Tfn recycling = experiment: Biotin-Tfn recycling assay; conditions: TDD expression (0 ng/ml Tet), ARPE/HPV cells, 10- or 30-min pulse (Fig. 2 D)
Procedure: Biotin-Tfn recycling was conducted according to previous protocols ([Chen et al., 2017]). Cells were cultured in biotin-free medium for 48 h, seeded in 96-well plates (Costar) at 60–70% confluence, and grown overnight. Before assay, cells were starved for 45 min in PBS4+ at 37°C or treated with peptides in PBS4+ at 37°C for the indicated times. After starvation, cells were supplied with 100 µl of 5 µg/ml Biotin-Tfn in PBS4+ for 10 or 30 min to load Biotin-Tfn into cells. When loading was complete, cells were cooled down to 4°C and washed with PBS4+ to remove extra Biotin-Tfn. Some cells were kept at 4°C as loading controls. The remaining cells were first treated with avidin and biocytin to mask the surface-bound Biotin-Tfn, and then incubated at 37°C for the indicated times. All the cells were then acid washed and fixed with 4% PFA as above. Blocking steps were the same as for the Biotin-Tfn uptake assay. Data were expressed as percentage of total intracellular ligand remaining relative to the initial load.

[2] = test system: CD44 uptake in ARPE/HPV cells; experiment: CD44 uptake (clathrin-independent endocytosis marker); conditions: TDD expression (0 ng/ml Tet), ARPE/HPV cells (Fig. 2 F)
Procedure: (§1) Internalization of TfnR, CD44, CD59, and Biotin-Tfn was quantified by in-cell ELISA following established protocols ([Conner and Schmid, 2003]; [Srinivasan et al., 2018]). Cells were seeded in 96-well plates (Costar) at 60–70% confluence and grown overnight. Before the assay, cells were starved for 30 min in PBS4+ at 37°C or treated with peptides in PBS4+ at 37°C for the indicated times. After starvation, cells were moved to 4°C, and culture medium was replaced with cold PBS4+ containing 5 µg/ml HTR-D65 (anti-TfnR mAb; [Schmid and Smythe, 1991]), anti-human CD44 or anti-human CD59 (BD PharMingen) or 5 µg/ml Biotin-Tfn (Sigma-Aldrich). For single-round assays, the above reagents were kept with cells for 20 min at 4°C and then washed out before uptake assay. For multiround assays, the above reagents were kept with cells throughout the uptake process. In parallel, some cells were kept at 4°C for the measurement of surface-bound ligands and blank controls, and some were incubated in a 37°C water bath for the indicated times. […] Color was developed using o-phenylenediamine dihydrochloride (OPD) solution (Sigma-Aldrich), and absorbance was read at 490 nm (Biotek Synergy H1 Hybrid Reader). Cell number variation among wells was accounted for by bicinchoninic acid assay reading at 562 nm.

[3] = test system: CD59 uptake in ARPE/HPV cells; experiment: CD59 uptake (clathrin-independent endocytosis marker); conditions: TDD expression (0 ng/ml Tet), ARPE/HPV cells (Fig. 2 F)
Procedure: as §1

[4] = test system: TfnR uptake in ARPE cells; experiment: TfnR uptake with TDD overexpression (Tet-off adenovirus); conditions: maximum TDD expression, adenovirus-infected ARPE cells, n = 4 replicates (Fig. 2 C)
Procedure: TDD, TD, and tTA adenoviruses were applied to cells directly in culture medium. Pilot experiments were conducted to optimize the volumes of each virus preparation need for uniform infection (Fig. S1, A and B). Experiments were conducted after 12–18 h, allowing for adequate viral infection and protein expression. Protein expression could be regulated by adjusting Tet concentration. All experiments were performed in the absence of Tet, allowing for maximum protein expression, except for Fig. 1, A–C.
as §1, with “(Sigma-Aldrich).” for “(Sigma-Aldrich). For single-round assays, the above reagents were kept with cells for 20 min at 4°C and then washed out before uptake assay. For multiround assays, the above reagents were kept with cells throughout the uptake process. In parallel, some cells were kept at 4°C for the measurement of surface-bound ligands and blank controls, and some were incubated in a 37°C water bath for the indicated times.”

[5] = test system: association of AP2 with the membrane pellet, ARPE cells; experiment: Subcellular fractionation, AP2 in membrane pellet; conditions: cells with TDD overexpression, n = 3; control cells 59 ± 14% (Fig. 5 E)
Procedure: Confluent ARPE or ARPE/HPV cells in a 10-cm dish were detached with 3 ml of 50 mM EDTA at 37°C for 10 min. Extra EDTA after detachment was neutralized with 0.2 ml of 1 M MgCl2. Cells were then spun down at 500 g for 3 min and washed with cold PBS. After another spin to remove PBS, cells were resuspended in 0.5 ml ice-cold lysis buffer (25 mM Hepes, 250 mM sucrose, 1 mM MgCl2, and 2 mM EGTA, pH 7.4). Cells were then lysed by five rounds of freeze–thaw cycle (rapid freezing in liquid nitrogen and slow thawing in room temperature water bath, followed by brief vortex and 10-s sonication). Intact cells and nuclei were removed by centrifugation for 2 min at 500 g. 0.1 ml of lysed sample was kept as total control, and the rest (0.4 ml) underwent ultracentrifugation at 4°C for 30 min at 110,000 g to separate membranes (pellet) from cytosol (supernatant). Supernatant was transferred to another low binding Eppendorf, and the pellet was resuspended with the same volume of lysis buffer (0.4 ml). Total, pellet, and supernatant were heat denatured in 1× sample buffer and probed by Western blotting.

| Molecule | CCP initiation (ARPE/HPV eGFP-CLCa cells) | fluid phase uptake (HRP) [1] | recycling of Tfn (Tfn recycling) | CD44 uptake (CIE) [2] | CD59 uptake (CIE) [3] | inhibition of endocytic efficiency of TfnR [4] | association of AP2 with the membrane pellet [5] |
| --- | --- | --- | --- | --- | --- | --- | --- |
| TD: clathrin heavy chain N-terminal domain, generated by mutating T495 to a stop codon in TDD (protein, UniProt Q00610 1-494, looked up, fragment, HA tag, clathrin heavy chain N-terminal domain, generated by mutating T495 to a stop codon in TDD) MAQILPIRFQEHLQLQNLGINPANIGFSTLTMESDKFICIREKVGEQAQVVIIDMNDPSNPIRRPISADSAIMNPASKVIALKAGKTLQIFNIEMKSKMKAHTMTDDVTFWKWISLNTVALVTDNAVYHWSMEGESQPVKMFDRHSSLAGCQIINYRTDAKQKWLLLTGISAQQNRVVGAMQLYSVDRKVSQPIEGHAASFAQFKMEGNAEESTLFCFAVRGQAGGKLHIIEVGTPPTGNQPFPKKAVDVFFPPEAQNDFPVAMQISEKHDVVFLITKYGYIHLYDLETGTCIYMNRISGETIFVTAPHEATAGIIGVNRKGQVLSVCVEEENIIPYITNVLQNPDLALRMAVRNNLAGAEELFARKFNALFAQGNYSEAAKVAANAPKGILRTPDTIRRFQSVPAQPGQTSPLLQYFGILLDQGQLNKYESLELCRPVLQQGRKQLLEKWLKEDKLECSEELGDLVKSVDPTLALSVYLRANVPNKVIQCFAE | sufficient to suppress |  |  |  |  |  |  |
| TDD: clathrin heavy chain fragment (residues 1–1,074): N-terminal domain plus distal leg, overexpressed by Tet-off adenovirus (protein, left off: HA, N-terminal, kept, clathrin heavy chain fragment (residues 1–1,074): N-terminal domain plus distal leg, overexpressed by Tet-off adenovirus) MAQILPIRFQEHLQLQNLGINPANIGFSTLTMESDKFICIREKVGEQAQVVIIDMNDPSNPIRRPISADSAIMNPASKVIALKAGKTLQIFNIEMKSKMKAHTMTDDVTFWKWISLNTVALVTDNAVYHWSMEGESQPVKMFDRHSSLAGCQIINYRTDAKQKWLLLTGISAQQNRVVGAMQLYSVDRKVSQPIEGHAASFAQFKMEGNAEESTLFCFAVRGQAGGKLHIIEVGTPPTGNQPFPKKAVDVFFPPEAQNDFPVAMQISEKHDVVFLITKYGYIHLYDLETGTCIYMNRISGETIFVTAPHEATAGIIGVNRKGQVLSVCVEEENIIPYITNVLQNPDLALRMAVRNNLAGAEELFARKFNALFAQGNYSEAAKVAANAPKGILRTPDTIRRFQSVPAQPGQTSPLLQYFGILLDQGQLNKYESLELCRPVLQQGRKQLLEKWLKEDKLECSEELGDLVKSVDPTLALSVYLRANVPNKVIQCFAETGQVQKIVLYAKKVGYTPDWIFLLRNVMRISPDQGQQFAQMLVQDEEPLADITQIVDVFMEYNLIQQCTAFLLDALKNNRPSEGPLQTRLLEMNLMHAPQVADAILGNQMFTHYDRAHIAQLCEKAGLLQRALEHFTDLYDIKRAVVHTHLLNPEWLVNYFGSLSVEDSLECLRAMLSANIRQNLQICVQVASKYHEQLSTQSLIELFESFKSFEGLFYFLGSIVNFSQDPDVHFKYIQAACKTGQIKEVERICRESNCYDPERVKNFLKEAKLTDQLPLIIVCDRFDFVHDLVLYLYRNNLQKYIEIYVQKVNPSRLPVVIGGLLDVDCSEDVIKNLILVVRGQFSTDELVAEVEKRNRLKLLLPWLEARIHEGCEEPATHNALAKIYIDSNNNPERFLRENPYYDSRVVGKYCEKRDPHLACVAYERGQCDLELINVCNENSLFKSLSRYLVRRKDPELWGSVLLESNPYRRPLIDQVVQTALSETQDPEEVSVTVKAFMTADLPNELIELLEKIVLDNSVFSEHRNLQNLLILTAIKADRTRVMEYINRLDNYDAPDIANIAISNELFEEAFAIFRK | dramatically decreased | not significantly inhibited | not significantly perturbed | not significantly inhibited | not significantly inhibited | 80% | 76 ± 14% |
